In article PMC13385800 (2026):

Key:
Assay in all cases: co-immunoprecipitation, mass spectrometry
[1] = molecular target: GPS2 (endogenous, HEK293T); details: HEK293T cells; n = 3 independent transfections per mutant; read off a plot
[2] = molecular target: HDAC3 (endogenous, HEK293T); details: HEK293T cells; n = 3 independent transfections per mutant; read off a plot
[3] = molecular target: TBL1X (endogenous, HEK293T); details: HEK293T cells; n = 3 independent transfections per mutant; read off a plot
[4] = molecular target: endogenous SETD5 of Flp-In T-REx 293 and HEK293T cells [human (endogenous in Flp-In T-REx 293 and HEK293T)]; details: n = 3 independent transfections per mutant, read off a plot
[5] = molecular target: NCOR1 (endogenous, HEK293T) [Homo sapiens (Human).]; details: HEK293T cells; n = 3 independent transfections per mutant; read off a plot

## EGFP-ANKRD11 full length (FL), wild type (from UniProt Q6UB99) L2605R
[1]
  other: log2 fold change (WT/mutant): 3.4 log2
[2]
  other: log2 fold change (WT/mutant): 7 log2
[3]
  other: log2 fold change (WT/mutant): 7.2 log2

## EGFP-ANKRD11 full length (FL), wild type mutant S2475P [not stated] / endogenous SETD5 of Flp-In T-REx 293 and HEK293T cells [human (endogenous in Flp-In T-REx 293 and HEK293T)] chain 1 S2475P
[4]
  screen value: 4.6 log2

## EGFP-ANKRD11 full length (FL), wild type mutant L2605R [not stated] / NCOR1 (endogenous, HEK293T) [Homo sapiens (Human).] chain 1 L2605R
[5]
  screen value: 7.9 log2

## EGFP-ANKRD11 full length (FL), wild type mutant R2512Q [not stated] / endogenous SETD5 of Flp-In T-REx 293 and HEK293T cells [human (endogenous in Flp-In T-REx 293 and HEK293T)] chain 1 R2512Q
[4]
  screen value: 4 log2

## EGFP-ANKRD11 full length (FL), wild type mutant E2522K [not stated] / NCOR1 (endogenous, HEK293T) [Homo sapiens (Human).] chain 1 E2522K
[5]
  screen value: 2.9 log2

## EGFP-ANKRD11 full length (FL), wild type (from UniProt Q6UB99) R2523W
[1]
  other: log2 fold change (WT/mutant): 2.8 log2
[2]
  other: log2 fold change (WT/mutant): 5.9 log2

## EGFP-ANKRD11 full length (FL), wild type mutant L2605R [not stated] / endogenous SETD5 of Flp-In T-REx 293 and HEK293T cells [human (endogenous in Flp-In T-REx 293 and HEK293T)] chain 1 L2605R
[4]
  screen value: 4.6 log2

## EGFP-ANKRD11 full length (FL), wild type (from UniProt Q6UB99) E2522K
[1]
  other: log2 fold change (WT/mutant): 2.8 log2
[2]
  other: log2 fold change (WT/mutant): 2.9 log2
[3]
  other: log2 fold change (WT/mutant): 2.3 log2

## EGFP-ANKRD11 full length (FL), wild type mutant R2523W [not stated] / NCOR1 (endogenous, HEK293T) [Homo sapiens (Human).] chain 1 R2523W
[5]
  screen value: 7.4 log2

## EGFP-ANKRD11 full length (FL), wild type mutant S2475P [not stated] / NCOR1 (endogenous, HEK293T) [Homo sapiens (Human).] chain 1 S2475P
[5]
  screen value: 7.9 log2

## EGFP-ANKRD11 full length (FL), wild type mutant E2522K [not stated] / endogenous SETD5 of Flp-In T-REx 293 and HEK293T cells [human (endogenous in Flp-In T-REx 293 and HEK293T)] chain 1 E2522K
[4]
  screen value: 2.7 log2

## EGFP-ANKRD11 full length (FL), wild type (from UniProt Q6UB99) S2475P
[1]
  other: log2 fold change (WT/mutant): 3.4 log2
[2]
  other: log2 fold change (WT/mutant): 7 log2
[3]
  other: log2 fold change (WT/mutant): 7.6 log2

## EGFP-ANKRD11 full length (FL), wild type mutant R2523W [not stated] / endogenous SETD5 of Flp-In T-REx 293 and HEK293T cells [human (endogenous in Flp-In T-REx 293 and HEK293T)] chain 1 R2523W
[4]
  screen value: 5.6 log2

## EGFP-ANKRD11 full length (FL), wild type mutant R2512Q [not stated] / NCOR1 (endogenous, HEK293T) [Homo sapiens (Human).] chain 1 R2512Q
[5]
  screen value: 4.2 log2
